Laboratory results as given in PMC3714537 (Molecular cell, 2012).

Biological target: linear tetra-Ub (UniProt P0CG47 1-76; P0CG47 1-76; P0CG47 1-76; P0CG47 1-76)

- Kd: 4.7 µM
B1: GFP-UBAN (EGFP fused to the CoZi domain of murine NEMO, amino acids 183-339) (domain or fragment, UniProt O88522 183-339, looked up)
chain: QLESEREVLQQQHSVQVDQLRMQNQSVEAALRMERQAASEEKRKLAQLQAAYHQLFQDYDSHIKSSKGMQLEDLRQQLQQAEEALVAKQELIDKLKEEAEQHKIVMETVPVLKAQADIYKADFQAERHAREKLVEKKEYLQEQLEQLQREFNKLKVG
